The series deals with the molecule itself. The series can be described thus: SEC; analytical size-exclusion chromatography of wild type non-tagged GFA, calibrated with standard protein samples; apparent Mw = 42 kDa.

B1: glutathione-dependent formaldehyde-activating enzyme (GFA) from Paracoccus denitrificans, wild type, non-tagged (enzyme)
chain: GHMVDTSGVKIHPAVDNGIKPAQPGFAGGTLHCKCSTNPVRVAVRAQTAHNHVCGCTKCWKPEGAIFSQVAVVGRDALEVLEGAEKLEIVNAEAPIQRHRCRDCGVHMYGRIENRDHPFYGLDFVHTELSDEDGWSAPEFAAFVSSIIESGVDPSRMEAIRARLRELGLEPYDALSPPLMDAIATHIAKRSGALAA
notes: an additional glycine residue and a histidine residue left on the N-terminus after TEV protease removal of the His-Tag; Expressed from a modified pET16b plasmid with a TEV site between the His-Tag and the insert; also called GFA WT; wild type non-tagged GFA; not shown: His-Tag, N-terminal, cleaved
For the protein B1, the “stoichiometry N” value worked out at 2.

The values above are taken from paper PMC4682968, “Studies on the Glutathione-Dependent Formaldehyde-Activating Enzyme from Paracoccus denitrificans” (PLoS ONE, 2015).
